Measurements as given in patent US6916624 (Genentech, dated 2005).
Where two headings read alike, the source gives them in different places. One block for each molecule: values may come before it.

Experiments:
[1] = target: ErbB receptor(s) on MCF7 cells; assay: cell-based or functional assay
[2] = target: ErbB2 on human breast cancer cells (MDA-MB-175, SK-BR-3) (human) (UniProt P04626); assay: cell-based or functional assay
[3] = target: T1, ErbB3-immunoadhesin (ErbB3-IgG fusion, L636 ErbB3-(TR)-DKTH224 VH) (human, UniProt P21860 20-643; P01857 104-330 = IgG part); assay: competitive displacement of ^125I-HRGβ1(177-244) (0.23 nM) from ErbB3-IgG captured on goat-anti-human antibody coated wells
T1 construct: extracellular domain;domain: hinge domain of the immunoglobulin onward; Made in HEK-293 cells, purified on Protein A; also called ErbB3 immunoadhesins
Experimental: (§1) ¹²⁵I-HRG Binding Assay. Binding assays were performed in Nunc breakapart strip wells. Plates were coated at 4° C. overnight with 100 μl of 5 μg/ml goat-anti-human antibody (Boehringer Mannheim) in 50 mM carbonate buffer (pH 9.6). Plates were rinsed twice with wash buffer (PBS/0.05% Tween-20™) and blocked with 100 μl 1% BSA/PBS for 30 min. Buffer was removed and each well was incubated with 15 ng IgG fusion protein in 1% BSA/PBS under vigorous shaking for 1.5 hours. Plates were rinsed three times with wash buffer and competitive binding was carried out by adding various amounts of γ-HRG and ¹²⁵I-HRGβ1 under vigorous shaking. After incubation for 1.5–2 hours, wells were rinsed three times with wash buffer, drained and individual wells were counted using a 100 Series Iso Data γ-counter.
(§2) Bio/Technology 11:187–193 (1993)). Under those conditions trxγ-HRG accumulated in inclusion bodies from which the recombinant protein was isolated. Following purification, the protein was sulfitolyzed and then refolded by the addition of cysteine. The interaction of γ-HRG with the heregulin receptors ErbB3 and ErbB4 was examined. […] Cells were treated with various amounts of γ-HRG and tyrosine kinase activity was determined using immunoblotting with anti-phosphotyrosine antibody.

[4] = target: T2, ErbB4-immunoadhesin (ErbB4-IgG fusion, G640 ErbB4-(TR)-DKTH224 VH) (human, UniProt Q15303 26-651; P01857 104-330 = IgG part); assay: competitive displacement of ^125I-HRGβ1(177-244) (0.23 nM) from ErbB4-IgG captured on goat-anti-human antibody coated wells
T2 construct: extracellular domain;domain: hinge domain of the immunoglobulin onward; also called H4-IgG; ErbB4 immunoadhesins
Experimental: as §1, §2

[5] = target: ErbB receptor(s) on MCF7 cells; assay: cell-based or functional assay; remark: listed apart in the source

T1 sequence (P21860 other isoform, or with tags, fused parts or gaps limits assumed): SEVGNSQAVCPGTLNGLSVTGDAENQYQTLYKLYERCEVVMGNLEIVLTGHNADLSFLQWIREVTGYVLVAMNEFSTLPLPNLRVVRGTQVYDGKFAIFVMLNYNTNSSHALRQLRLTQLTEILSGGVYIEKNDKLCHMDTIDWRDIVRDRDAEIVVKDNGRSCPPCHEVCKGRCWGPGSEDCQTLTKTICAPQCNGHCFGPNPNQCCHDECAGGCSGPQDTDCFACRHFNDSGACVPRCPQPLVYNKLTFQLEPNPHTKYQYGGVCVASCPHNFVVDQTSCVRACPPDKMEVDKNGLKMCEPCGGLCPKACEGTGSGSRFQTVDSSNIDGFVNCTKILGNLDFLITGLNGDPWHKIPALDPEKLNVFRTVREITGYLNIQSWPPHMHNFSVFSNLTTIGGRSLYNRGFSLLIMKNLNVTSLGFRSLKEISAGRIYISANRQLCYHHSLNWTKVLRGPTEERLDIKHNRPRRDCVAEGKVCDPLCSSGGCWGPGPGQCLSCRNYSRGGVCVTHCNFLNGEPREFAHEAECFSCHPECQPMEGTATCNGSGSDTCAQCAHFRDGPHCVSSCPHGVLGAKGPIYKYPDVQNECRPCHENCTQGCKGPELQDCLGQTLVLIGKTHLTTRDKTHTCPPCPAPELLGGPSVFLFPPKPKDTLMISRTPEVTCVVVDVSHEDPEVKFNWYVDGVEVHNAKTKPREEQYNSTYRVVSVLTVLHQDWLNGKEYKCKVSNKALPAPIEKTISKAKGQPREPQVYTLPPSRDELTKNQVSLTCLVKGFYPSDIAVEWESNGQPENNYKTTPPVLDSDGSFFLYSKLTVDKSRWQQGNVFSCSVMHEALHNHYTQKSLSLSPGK
T2 sequence (Q15303 other isoform, or with tags, fused parts or gaps limits assumed): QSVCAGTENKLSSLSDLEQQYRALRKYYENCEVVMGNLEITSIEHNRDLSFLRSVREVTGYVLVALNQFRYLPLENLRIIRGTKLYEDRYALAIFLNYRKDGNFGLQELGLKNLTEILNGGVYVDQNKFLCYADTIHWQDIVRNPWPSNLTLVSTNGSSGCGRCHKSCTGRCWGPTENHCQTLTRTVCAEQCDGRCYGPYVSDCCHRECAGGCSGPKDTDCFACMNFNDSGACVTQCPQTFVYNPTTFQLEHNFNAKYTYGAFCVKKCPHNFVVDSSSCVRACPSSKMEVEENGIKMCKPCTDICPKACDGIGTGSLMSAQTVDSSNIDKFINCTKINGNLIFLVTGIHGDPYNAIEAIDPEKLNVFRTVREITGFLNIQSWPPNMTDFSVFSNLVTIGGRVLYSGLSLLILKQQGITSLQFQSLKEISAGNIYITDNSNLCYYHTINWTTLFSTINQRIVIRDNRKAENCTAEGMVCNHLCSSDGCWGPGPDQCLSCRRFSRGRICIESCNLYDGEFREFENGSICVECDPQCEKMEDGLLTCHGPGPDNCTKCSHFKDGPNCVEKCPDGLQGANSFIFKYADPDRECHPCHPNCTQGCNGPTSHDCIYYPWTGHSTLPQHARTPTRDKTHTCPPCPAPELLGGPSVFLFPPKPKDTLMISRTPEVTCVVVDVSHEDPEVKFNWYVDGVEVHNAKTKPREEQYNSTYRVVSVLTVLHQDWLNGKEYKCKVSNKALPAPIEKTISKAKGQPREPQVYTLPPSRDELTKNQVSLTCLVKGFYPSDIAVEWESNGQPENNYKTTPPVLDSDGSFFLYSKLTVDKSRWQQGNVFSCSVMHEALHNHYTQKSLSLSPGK

EC50 of tyrosine phosphorylation in MCF7 cells [1]: 60 pM
Molecule: EGF-like domain of HRGβ1(177-244), expressed in E. coli (from UniProt Q02297 177-244) (ligand)

growth inhibition of SK-BR-3 cells (crystal violet staining) [2]: 66%
Molecule: anti-ErbB2 monoclonal antibody 4D5

EC50 [3]: 19 nM
EC50 [4]: 13.3 nM
EC50 of tyrosine phosphorylation in MCF7 cells [5]: 60 pM
B1: trxγ-HRG (amino acids 455-768), N-terminal truncated γ-HRG thioredoxin fusion protein (ligand)
chain: QVFIDHPVHLKFNVSLGKAALVGIYGRKGLPPSHTQFDFVELLDGRRLLTQEARSLEGTPRQSRGTVPPSSHETGFIQYLDSGIWHLAFYNDGKESEVVSFLTTAIALPPRLKEMKSQESAAGSKLVLRCETSSEYSSLRFKWFKNGNELNRKNKPQNIKIQKKPGKSELRINKASLADSGEYMCKVISKLGNDSASANITIVESNEIITGMPASTEGAYVSSESPIRISVSTEGANTSSSTSTSTTGTSHLVKCAEKEKTFCVNGGECFMVKDLSNPSRYLCKCPNEFTGDRCQNYVMASFYSTSTPFLSLPE
notes: The results text calls it simply γ-HRG; also called recombinant γ-HRG; bacterial expressed truncated γ-HRG; not shown: N-terminal thioredoxin encoded by the pET-32a TRX fusion vector (Novagen); vector-encoded residues of pET32a between thioredoxin and the BamHI insertion site are not described
